Laboratory results from article PMC2289474.

Tests used:
[1] = target: laminin (Engelbreth-Holm-Swarm tumor laminin, free of entactin) (mouse (endogenous in EHS tumor)) (UniProt P19137); experiment: sedimentation assay of polymerization
[2] = target: laminin/entactin complex (laminin-nidogen complex) of the EHS tumor (mouse (endogenous in EHS tumor)) (UniProt P19137); experiment: sedimentation assay of polymerization
[3] = target: laminin/entactin complex (laminin-nidogen complex) of the EHS tumor (mouse (endogenous in EHS tumor)) (UniProt P19137); experiment: extraction of laminin from tissue matrix

critical concentration of polymerization [1] [mg/mL] | critical concentration of polymerization [2] [mg/mL] | concentration of free laminin over the EHS matrix in buffer at 37 C [3] [mg/mL] | percent of total laminin of the EHS matrix extracted by 10 mM EDTA [3] [%] | Substance
0.1 |  |  |  | laminin (Engelbreth-Holm-Swarm tumor laminin, free of entactin), P19137 25-3083; P02469 22-1786; P02468 34-1607
 | 0.1 | 0.08 | 79 | laminin/entactin complex (laminin-nidogen complex) of the EHS tumor, P19137 25-3083; P02469 22-1786; P02468 34-1607; P10493 29-1245
